The target in assay [1] is T1, SARS-CoV-2 RBD domain (residues 319–541) with C-terminal twin-strep-tag II (SARS-CoV-2 Wuhan-Hu-1 (MN908947), UniProt P0DTC2). Briefly: cryo-EM structure.
The target of another assay is RBD-his (SARS-CoV-2, UniProt P0DTC2). The assay is described as follows: AlphaScreen or HTRF.
Assay [2] addresses T2, SARS-CoV-2 RBD domain (residues 319-541) (SARS-CoV-2 Wuhan-Hu-1 (MN908947), UniProt P0DTC2). The assay is described as follows: cryo-EM structure.
Assay [3] addresses T1, SARS-CoV-2 RBD domain (residues …). The assay is described as follows: crystal structure.
The target of assay [4] is T2, SARS-CoV-2 RBD domain (residues 319-541). The assay is described as follows: crystal structure.

B1: A5–10 Fab (Fab, V domains shown)
VH: EVQLLESGGGLVQPGGSLRLSCAASGFTFSSYAMSWVRQAPGKGLEWVSAIVGSGGSTYYADSVKGRFIISRDNSKNTLYLQMNSLRAEDTAVYYCAKSLIYGHYDILTGAYYFDYWGQGTLVTVSS
VL: AQMTQSPSSVSASVGDRVTIPCRASQGIGNWLAWYQQKPGKAPKLLIYAASSLQSGVPSRFSGSGSGTDFTLTISSLQPEDFATYYCQQANSFPPFGQGTRLEIK
B1: in assay [1], the binding result is recorded as “binds”.

B2: nAb A5–10 (antibody, V domains shown)
VH: EVQLLESGGGLVQPGGSLRLSCAASGFTFSSYAMSWVRQAPGKGLEWVSAIVGSGGSTYYADSVKGRFIISRDNSKNTLYLQMNSLRAEDTAVYYCAKSLIYGHYDILTGAYYFDYWGQGTLVTVSS
VL: AQMTQSPSSVSASVGDRVTIPCRASQGIGNWLAWYQQKPGKAPKLLIYAASSLQSGVPSRFSGSGSGTDFTLTISSLQPEDFATYYCQQANSFPPFGQGTRLEIK
Take B2: in the assay with RBD-his, the binding result is “binds”.

B3: A5-10 Fab (Fab, V domains shown)
VH: EVQLLESGGGLVQPGGSLRLSCAASGFTFSSYAMSWVRQAPGKGLEWVSAIVGSGGSTYYADSVKGRFIISRDNSKNTLYLQMNSLRAEDTAVYYCAKSLIYGHYDILTGAYYFDYWGQGTLVTVSS
VL: AQMTQSPSSVSASVGDRVTIPCRASQGIGNWLAWYQQKPGKAPKLLIYAASSLQSGVPSRFSGSGSGTDFTLTISSLQPEDFATYYCQQANSFPPFGQGTRLEIK
For B3, the binding result in assay [2] was “binds”.

B4: A8–1 Fab (Fab, V domains shown)
VH: EVQLVESGGGLIQPGGSLRLSCAASGLTVSSNYMTWVRQAPGKGLEWVSVIYSGGSTFYAESVKGRFTISRDNSKNTLYLQMNSLRAEDTAVYYCARDLVVYGMDVWGQGTTVIVSS
VL: IQLTQSPSFLSASVGDRVTITCRASQGISSDLAWYQQKPGKAPKLLIYAASTLQSGVPSRFSGSGSGTEFTLTISSLQPEDFATYYCQQLNSHPLAFGPGTKVDIK
B4: in assay [3], the binding result is “binds”.

B5: nAb A8–1 (antibody, V domains shown)
VH: EVQLVESGGGLIQPGGSLRLSCAASGLTVSSNYMTWVRQAPGKGLEWVSVIYSGGSTFYAESVKGRFTISRDNSKNTLYLQMNSLRAEDTAVYYCARDLVVYGMDVWGQGTTVIVSS
VL: IQLTQSPSFLSASVGDRVTITCRASQGISSDLAWYQQKPGKAPKLLIYAASTLQSGVPSRFSGSGSGTEFTLTISSLQPEDFATYYCQQLNSHPLAFGPGTKVDIK
B5: the binding result with RBD-his is “binds”.

B6: A8-1 Fab (Fab, V domains shown)
VH: EVQLVESGGGLIQPGGSLRLSCAASGLTVSSNYMTWVRQAPGKGLEWVSVIYSGGSTFYAESVKGRFTISRDNSKNTLYLQMNSLRAEDTAVYYCARDLVVYGMDVWGQGTTVIVSS
VL: IQLTQSPSFLSASVGDRVTITCRASQGISSDLAWYQQKPGKAPKLLIYAASTLQSGVPSRFSGSGSGTEFTLTISSLQPEDFATYYCQQLNSHPLAFGPGTKVDIK
For B6, the binding result in assay [4] is listed as “binds”.

B7: nAb A34–2 (antibody, V domains shown)
VH: EVQLVESGGGLVQPGRSLRLSCAASGFTFDESAMHWVRQAPGEGLEWVSGISWNSGRIAYADSVRGRFTISRDNAKNSLYLQMNSLRAEDTALYFCALTTSGWFSFDYWGQGTLVTVSS
VL: SYVLTQPPSVSVAPGKTARITCGGNNIGSKSVHWYQQKPGQAPVPVIYYDSDRPSGIPERFSGSNSGNTATLTISRVEVGDEADYYCQVWDSSSDRAVFGGGTTLTVL
As to B7, the binding result in the assay with RBD-his is on record as “binds”.

B8: A34-2 Fab (Fab, V domains shown)
VH: EVQLVESGGGLVQPGRSLRLSCAASGFTFDESAMHWVRQAPGEGLEWVSGISWNSGRIAYADSVRGRFTISRDNAKNSLYLQMNSLRAEDTALYFCALTTSGWFSFDYWGQGTLVTVSS
VL: SYVLTQPPSVSVAPGKTARITCGGNNIGSKSVHWYQQKPGQAPVPVIYYDSDRPSGIPERFSGSNSGNTATLTISRVEVGDEADYYCQVWDSSSDRAVFGGGTTLTVL
As for B8, the binding result in assay [2] was “binds”.

B9: A34–2 Fab (Fab, V domains shown)
VH: EVQLVESGGGLVQPGRSLRLSCAASGFTFDESAMHWVRQAPGEGLEWVSGISWNSGRIAYADSVRGRFTISRDNAKNSLYLQMNSLRAEDTALYFCALTTSGWFSFDYWGQGTLVTVSS
VL: SYVLTQPPSVSVAPGKTARITCGGNNIGSKSVHWYQQKPGQAPVPVIYYDSDRPSGIPERFSGSNSGNTATLTISRVEVGDEADYYCQVWDSSSDRAVFGGGTTLTVL
Regarding B9, the binding result in assay [1] is given as “binds”.

(Values after PMC10108556 (Antibody Therapeutics, 2023).)
